# Test results from patent publication US20040106198.
# T1: N-Suc-AAA-pNA
# T1 chain: AAA
# T2: N-Suc-AAPA-pNA
# T2 chain: AAPA
# T3: N-Suc-AAPD-pNA
# T3 chain: AAPD
# T4: N-Suc-AAPF-pNA
# T4 chain: AAPF
# T5: N-Suc-AAPI-pNA
# T5 chain: AAPI
# T6: N-Suc-AAPL-pNA
# T6 chain: AAPL
# T7: N-Suc-AAPM-pNA
# T7 chain: AAPM
# T8: N-Suc-AAPV-pNA
# T8 chain: AAPV
# T9: N-Suc-AAV-pNA
# T9 chain: AAV
# T10: N-Suc-AAVA-pNA
# T10 chain: AAVA
# T11: N-Suc-FVR-pNA
# T11 chain: FVR
# T12: N-Suc-GFG-pNA
# T12 chain: GFG
# T13: N-Suc-GGF-pNA
# T13 chain: GGF
# T14: N-Suc-GGG-pNA
# T14 chain: GGG
# T15: N-Suc-GGL-pNA
# T15 chain: GGL
# T16: N-Suc-GPK-pNA
# T16 chain: GPK
# T17: N-Suc-IEGR-pNA
# T17 chain: IEGR
# T18: N-Suc-PFR-pNA
# T18 chain: PFR
# T19: N-Suc-VGR-pNA
# T19 chain: VGR
# T20: N-Suc-YLV-pNA
# T20 chain: YLV
# T21: N-Suc-YVAD-pNA
# T21 chain: YVAD
# B1: Nicotianalisin (Nicotiana benthamiana subtilisin-like serine protease) (protein)
# chain: ANCITMYFLLLTILLLTLNPLTMAESETYIIHMDLSAMPKAFSSHQNWYLTTLASVSGSSSLGTESNRNSFSSSKLVYAYTNAIHGFSATLSPSELQVIKNSPGYLSSTKDMTVKIDTTHTSQFLGLNSDSGAWPKSDYGKDVIVGLVDTGIWPESKSYNDNGMTEVPSRWKGECESGTQFNSSLCNKKLIGARYFNKGLIANNPNITISMNSARDTDGHGTHTSSTAAGSHVESASYFGYARGSATGMAPKAHVAMYKALWEEGTMLSDILAAIDQAIEDGVDIISLSLGIDDLALYEDPVAIATFAAMEKDIFVSTSAGNEGPDDQALHNGTPWVLTVAAGTVDREFIGTLSLGNGVSVTGLSLYPGNSSSSESSIVFLKTCLEEKELEKNAHKFAVCYDTNGSVSDQLYNVKNTKVAGGIFITNYTDLEFYLQSEFPAVFLNFEDGDKVLEYIKNSHSPKARLEFQVTHLGAKPAPKVASYSSRGPSESCPFILKPDLMAPGALILASWPQKSPATQIRSGELFSNFNIISGTSMSCPHAAGVAALLKGAHPKWSPAAIRSAMMTTADTMDNMQMPIRDIGRNNNAASPLAMGAGRINPNKALDPGLIYDITSQDYINLLCALDFTSQQIKAITRSSAYSCSNSSLDLNYPSFIGYFNYNSSESDPKRIQEFQRTVTNVGEGMSVYTAKLTSMGDYKASVAPDKLVFKEKYEKQSYKLRIEGPLLVDIILFMVL
# How the values were obtained:
# N-Suc-AAA-pNA = target: T1, N-Suc-AAA-pNA
# N-Suc-AAPA-pNA = target: T2, N-Suc-AAPA-pNA
# N-Suc-AAPD-pNA = target: T3, N-Suc-AAPD-pNA
# N-Suc-AAPF-pNA = target: T4, N-Suc-AAPF-pNA
# N-Suc-AAPI-pNA = target: T5, N-Suc-AAPI-pNA
# N-Suc-AAPL-pNA = target: T6, N-Suc-AAPL-pNA
# N-Suc-AAPM-pNA = target: T7, N-Suc-AAPM-pNA
# N-Suc-AAPV-pNA = target: T8, N-Suc-AAPV-pNA
# N-Suc-AAV-pNA = target: T9, N-Suc-AAV-pNA
# N-Suc-AAVA-pNA = target: T10, N-Suc-AAVA-pNA
# N-Suc-FVR-pNA = target: T11, N-Suc-FVR-pNA
# N-Suc-GFG-pNA = target: T12, N-Suc-GFG-pNA
# N-Suc-GGF-pNA = target: T13, N-Suc-GGF-pNA
# N-Suc-GGG-pNA = target: T14, N-Suc-GGG-pNA
# N-Suc-GGL-pNA = target: T15, N-Suc-GGL-pNA
# N-Suc-GPK-pNA = target: T16, N-Suc-GPK-pNA
# N-Suc-IEGR-pNA = target: T17, N-Suc-IEGR-pNA
# N-Suc-PFR-pNA = target: T18, N-Suc-PFR-pNA
# N-Suc-VGR-pNA = target: T19, N-Suc-VGR-pNA
# N-Suc-YLV-pNA = target: T20, N-Suc-YLV-pNA
# N-Suc-YVAD-pNA = target: T21, N-Suc-YVAD-pNA
# [1] = target: human growth hormone, P01241
# [2] = target: oxidized bovine insulin B chain, P01317
# Sequence of oxidized bovine insulin B chain, P01317 (P01317 25-54): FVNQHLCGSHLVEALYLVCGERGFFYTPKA
# Sequence of human growth hormone, P01241 (P01241 27-217): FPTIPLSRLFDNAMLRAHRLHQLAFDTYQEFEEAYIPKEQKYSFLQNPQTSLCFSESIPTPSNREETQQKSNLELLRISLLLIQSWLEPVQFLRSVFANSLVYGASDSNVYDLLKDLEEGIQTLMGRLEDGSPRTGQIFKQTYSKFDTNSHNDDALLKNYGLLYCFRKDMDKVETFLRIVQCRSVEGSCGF
protein,measurement,setting,value
B1,"Relative Activity (release of p-NA at 410 nm, 0.3 mM substrate) (% of the activity with N-Suc-AAPL-pNA)",N-Suc-AAA-pNA,2
same,"Relative Activity (release of p-NA at 410 nm, 0.3 mM substrate) (% of the activity with N-Suc-AAPL-pNA)",N-Suc-AAPA-pNA,24
same,"Relative Activity (release of p-NA at 410 nm, 0.3 mM substrate) (% of the activity with N-Suc-AAPL-pNA)",N-Suc-AAPD-pNA,16
same,"Relative Activity (release of p-NA at 410 nm, 0.3 mM substrate) (% of the activity with N-Suc-AAPL-pNA)",N-Suc-AAPF-pNA,67
same,"Relative Activity (release of p-NA at 410 nm, 0.3 mM substrate) (% of the activity with N-Suc-AAPL-pNA)",N-Suc-AAPI-pNA,8
same,"Relative Activity (release of p-NA at 410 nm, 0.3 mM substrate) (% of the activity with N-Suc-AAPL-pNA)",N-Suc-AAPL-pNA,100
same,"Relative Activity (release of p-NA at 410 nm, 0.3 mM substrate) (% of the activity with N-Suc-AAPL-pNA)",N-Suc-AAPM-pNA,100
same,"Relative Activity (release of p-NA at 410 nm, 0.3 mM substrate) (% of the activity with N-Suc-AAPL-pNA)",N-Suc-AAPV-pNA,8
same,"Relative Activity (release of p-NA at 410 nm, 0.3 mM substrate) (% of the activity with N-Suc-AAPL-pNA)",N-Suc-AAV-pNA,5
same,"Relative Activity (release of p-NA at 410 nm, 0.3 mM substrate) (% of the activity with N-Suc-AAPL-pNA)",N-Suc-AAVA-pNA,20
same,"Relative Activity (release of p-NA at 410 nm, 0.3 mM substrate) (% of the activity with N-Suc-AAPL-pNA)",N-Suc-FVR-pNA,1
same,"Relative Activity (release of p-NA at 410 nm, 0.3 mM substrate) (% of the activity with N-Suc-AAPL-pNA)",N-Suc-GFG-pNA,1
same,"Relative Activity (release of p-NA at 410 nm, 0.3 mM substrate) (% of the activity with N-Suc-AAPL-pNA)",N-Suc-GGF-pNA,3
same,"Relative Activity (release of p-NA at 410 nm, 0.3 mM substrate) (% of the activity with N-Suc-AAPL-pNA)",N-Suc-GGG-pNA,1
same,"Relative Activity (release of p-NA at 410 nm, 0.3 mM substrate) (% of the activity with N-Suc-AAPL-pNA)",N-Suc-GGL-pNA,1
same,"Relative Activity (release of p-NA at 410 nm, 0.3 mM substrate) (% of the activity with N-Suc-AAPL-pNA)",N-Suc-GPK-pNA,2
same,"Relative Activity (release of p-NA at 410 nm, 0.3 mM substrate) (% of the activity with N-Suc-AAPL-pNA)",N-Suc-IEGR-pNA,18
same,"Relative Activity (release of p-NA at 410 nm, 0.3 mM substrate) (% of the activity with N-Suc-AAPL-pNA)",N-Suc-PFR-pNA,1
same,"Relative Activity (release of p-NA at 410 nm, 0.3 mM substrate) (% of the activity with N-Suc-AAPL-pNA)",N-Suc-VGR-pNA,3
same,"Relative Activity (release of p-NA at 410 nm, 0.3 mM substrate) (% of the activity with N-Suc-AAPL-pNA)",N-Suc-YLV-pNA,0
same,"Relative Activity (release of p-NA at 410 nm, 0.3 mM substrate) (% of the activity with N-Suc-AAPL-pNA)",N-Suc-YVAD-pNA,70
same,"in vitro cleavage of purified hGH at a 1:50 protease:substrate ratio, 10-30 min at 30 C, SDS-PAGE and Western blot (FIGS. 7 and 8)",[1],Two prominent immunoreactive degradation products were detected
same,"hydrolysis of oxidized insulin B chain, 2 to 16 hr at 37 C, MALDI-TOF of the cleavage products (FIG. 6)",[2],"hydrolysis occurred after leucine, cysteine, proline, and lysine amino acid residues"
